Measurements taken from patent publication US12624112 (MABWELL SHANGHAI BIOSCIENCE, dated 2026).
Positions count from the first letter of the chain named. Like-named read-outs stand apart in the source and are kept apart here. Each block holds one binder with its values, some of them ahead of it.

What was measured:
[1] = target: T1, ST2 on the effector cells (KU812, KU812/NF-κB-1#, HUVEC, HMC-1) (human, UniProt Q01638 19-556); assay: cell-based or functional assay
T1 sequence (looked up): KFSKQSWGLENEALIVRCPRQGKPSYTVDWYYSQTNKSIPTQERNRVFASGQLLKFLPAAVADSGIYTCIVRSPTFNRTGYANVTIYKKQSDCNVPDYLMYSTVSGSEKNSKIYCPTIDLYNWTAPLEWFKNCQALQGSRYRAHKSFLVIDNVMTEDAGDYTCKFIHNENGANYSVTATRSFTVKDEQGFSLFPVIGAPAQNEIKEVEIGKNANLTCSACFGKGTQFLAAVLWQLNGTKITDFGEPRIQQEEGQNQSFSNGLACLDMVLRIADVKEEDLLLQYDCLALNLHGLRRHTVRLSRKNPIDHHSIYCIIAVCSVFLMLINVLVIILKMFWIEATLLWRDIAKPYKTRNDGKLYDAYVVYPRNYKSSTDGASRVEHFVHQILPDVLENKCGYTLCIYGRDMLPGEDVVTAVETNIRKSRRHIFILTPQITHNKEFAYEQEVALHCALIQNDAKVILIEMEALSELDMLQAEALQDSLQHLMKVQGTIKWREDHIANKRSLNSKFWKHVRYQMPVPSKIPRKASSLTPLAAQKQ

[2] = target: T1, ST2 on the effector cells (KU812, …); assay: cell-based or functional assay; remark: listed apart in the source
[3] = target: T1, ST2 on the effector cells (KU812, …); assay: cell-based or functional assay; remark: listed apart in the source
[4] = target: T1, ST2 on the effector cells (KU812, …); assay: cell-based or functional assay; remark: listed apart in the source
[5] = target: T1, ST2 on the effector cells (KU812, …); assay: cell-based or functional assay; remark: listed apart in the source
Human ST2-fc (human) [6] = target: Human ST2-fc (human) (UniProt Q01638); assay: competition ELISA, coated ST2-fc, competitor IL33-his
Human ST2-his [7] = target: T2, Human ST2-his (human, UniProt Q01638-2 19-328, limits assumed); assay: SPR Biacore X100, antibody captured on protein A chip, human ST2-his injected, pH 7.4
T2 construct: Expressed in CHO-K1; The printed range starts at Met1; also called human ST2 fused with a 6-histidine tag at the C-terminus
T2 sequence: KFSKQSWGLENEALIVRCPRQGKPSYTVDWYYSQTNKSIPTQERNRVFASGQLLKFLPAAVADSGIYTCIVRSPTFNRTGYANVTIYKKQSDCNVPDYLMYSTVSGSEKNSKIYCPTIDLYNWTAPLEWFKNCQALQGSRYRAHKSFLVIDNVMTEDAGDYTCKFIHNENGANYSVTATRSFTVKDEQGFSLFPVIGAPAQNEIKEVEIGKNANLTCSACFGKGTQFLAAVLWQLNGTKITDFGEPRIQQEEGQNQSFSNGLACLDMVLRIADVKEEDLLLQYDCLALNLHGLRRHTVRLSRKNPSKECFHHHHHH
Method in brief: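 Antibody (2 µg/mL) captured 60 s on protein A; human ST2-his injected at six 2-fold dilutions from 20 nM, association 180 s, dissociation 700 s. Kinetics fitted to 1:1 binding model; glycine pH 2.0 regeneration.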

Human ST2-his [8] = target: T2, Human ST2-his; assay: SPR Biacore X100, ratio of kd at pH 5.5 to kd at pH 7.4
Procedure: (§1) The experiment on the interaction between the anti-human ST2 antibodies and human ST2-his was performed using Biacore X100.
(§2) Each anti-human ST2 antibody was diluted to 2 µg/mL and captured on the surface of a protein A chip for a capture time of 60 s. Following the antibody capture, a solution of human ST2-his (2-fold gradient dilution from a starting concentration of 20 nM, to obtain 6 concentrations in total) was injected. Association was monitored for 180 s and dissociation was monitored for 700 s, and the sensor surface was regenerated by injecting a solution of glycine at pH 2.0. Kinetic data were analyzed using a simple 1:1 binding model.

Human ST2-his [9] = target: T2, Human ST2-his; assay: SPR Biacore X100, antibody captured on protein A chip, human ST2-his injected, dissociation at pH 5.5
Procedure: as §1, §2

[10] = target: T1, ST2 on the effector cells (KU812, …); assay: cell-based or functional assay; remark: listed apart in the source
Human ST2-his [11] = target: T2, Human ST2-his; assay: SPR Biacore X100, antibody captured on protein A chip, human ST2-his injected, pH 7.4; pH 7.4
Procedure: as §1, §2

Human ST2-fc (human) [12] = target: Human ST2-fc (human) (UniProt Q01638); assay: competition ELISA, coated ST2-fc, competitor IL33-his; remark: listed apart in the source

B2: 5888-153-H0L1 (antibody, human IgG4 S228P, kappa, V domains shown)
VH: QVQLVQSGAEVKKPGASVKVSCKASGYTFTDYELHWVRQAPGQGLEWMGTIDPETGDTVYNQKFKARVTMTRDTSTSTVYMELSSLRSEDTAVYYCARAFYNDYDDGFAYWGQGTLVTVSS
VL: EIVMTQSPATLSLSPGERATLSCSVSSSVSYMHWYQQKPGQAPRRLIYDTSKLASGIPARFSGSGSGTDYTLTISSLEPEDAAVYYCQQWNSSPLTFGGGTKVEIKR
notes: Humanized antibody
- IC50, inhibition of HMC-1 IL8 production promoted by IL33 [1]: 0.0359 µg/mL
- Maximum inhibition rate, HMC-1 IL8 production by IL33 [1]: 87.2%
- Relative activity, HMC-1 IL8 production by IL33 [1]: 280%
- IC50, inhibition of HUVEC-IL6 production promoted by IL33 [2]: 0.844 µg/mL
- Maximum inhibition rate, HUVEC-IL6 production by IL33 [2]: 93%
- Relative activity, HUVEC-IL6 production by IL33 [2]: 323%
- IC50, inhibition of KU812-IL5 production promoted by IL-33 (human IL33-his) [3]: 0.0303 µg/mL
- Maximum inhibition rate, KU812-IL5 production by IL-33 [3]: 99.1%
- Relative activity compared with CNTO7160, KU812-IL5 production by IL-33 [3]: 201%
- IC50, inhibition of activation of KU812-NF-κB reporter gene by IL33 [4]: 0.0438 µg/mL
- Maximum inhibition rate, KU812-NF-κB reporter gene [4]: 88.2%
- Relative activity compared with CNTO7160, KU812-NF-κB reporter gene [4]: 458%
- IC50, inhibition of KU812-IL5 production promoted by oxidized IL33 [5]: 0.0147 µg/mL
- Maximum inhibition rate, KU812-IL5 production by oxidized IL33 [5]: 101%
- Relative activity, KU812-IL5 production by oxidized IL33 [5]: 150%
- IC50 (Human ST2-fc (human) [6]): 0.3 µg/mL
- Maximum inhibition rate (Human ST2-fc (human) [6]): 94.3%
- Relative activity compared with CNTO7160 (Human ST2-fc (human) [6]): 380%
- Kd (Human ST2-his [7]): 0.0997 nM
- koff (Human ST2-his [7]): 0.000176 s⁻¹
- kon (Human ST2-his [7]): 1.76e+06 M⁻¹ s⁻¹
- kd ratio of pH 5.5/pH 7.4 (Human ST2-his [8]): 0.86
- Kd (Human ST2-his [9]): 0.0706 nM
- koff (Human ST2-his [9]): 0.000152 s⁻¹
- kon (Human ST2-his [9]): 2.15e+06 M⁻¹ s⁻¹
- IC50, inhibition of KU812-IL5 production promoted by reduced IL33 [10]: 0.389 µg/mL
- Maximum inhibition rate, KU812-IL5 production by reduced IL33 [10]: 83.6%
- Relative activity, KU812-IL5 production by reduced IL33 [10]: 377%

B4: 5888-379-H2L2 (antibody, human IgG4 S228P, kappa, V domains shown)
VH: QVQLVQSGAEVKKPGASVKVSCKASGYTFINYGMNWVRQAPGQRLEWMGWINTYIGEPTYGDNFKGRVTITRDTSASTAYMELSSLRSEDTAVYYCAREGDAFAYWGQGTLVTVSS
VL: DIVMTQSPDSLAVSLGERATINCKSSQSLLYSGNQNNYLAWYQQKPGQPPKLLIYGASTRESGVPDRFSGSGSGTDFTLTISSLQAEDVAVYYCQNDHSYPYTFGGGTKVEIKR
notes: Humanized antibody
- IC50 (Human ST2-fc (human) [12]): 0.402 µg/mL
- Maximum inhibition rate (Human ST2-fc (human) [12]): 86%
- Relative activity compared with CNTO7160 (Human ST2-fc (human) [12]): 219%
- IC50, inhibition of KU812-IL5 production promoted by IL-33 (human IL33-his) [3]: 0.0948 µg/mL
- Maximum inhibition rate, KU812-IL5 production by IL-33 [3]: 97.9%
- Relative activity compared with CNTO7160, KU812-IL5 production by IL-33 [3]: 107%
- Kd (Human ST2-his [7]): 0.515 nM
- koff (Human ST2-his [7]): 0.000702 s⁻¹
- kon (Human ST2-his [7]): 1.36e+06 M⁻¹ s⁻¹
- kd ratio of pH 5.5/pH 7.4 (Human ST2-his [8]): 38.4
- Kd (Human ST2-his [9]): 2.67 nM
- koff (Human ST2-his [9]): 0.0269 s⁻¹
- kon (Human ST2-his [9]): 1.01e+07 M⁻¹ s⁻¹

The remaining binders from weak to strong by Kd (Human ST2-his [9]), led by results:

- IC50, inhibition of HMC-1 IL8 production promoted by IL33 [1]: 0.101 µg/mL
- Maximum inhibition rate, HMC-1 IL8 production by IL33 [1]: 82.3%
- IC50, inhibition of HUVEC-IL6 production promoted by IL33 [2]: 2.73 µg/mL
- Maximum inhibition rate, HUVEC-IL6 production by IL33 [2]: 66.6%
- Relative activity, HUVEC-IL6 production by IL33 [2]: 100%
- Maximum inhibition rate, KU812-IL5 production by IL-33 [3]: 97.5%
- IC50, inhibition of activation of KU812-NF-κB reporter gene by IL33 [4]: 0.2 µg/mL
- Maximum inhibition rate, KU812-NF-κB reporter gene [4]: 88.2%
- IC50, inhibition of KU812-IL5 production promoted by oxidized IL33 [5]: 0.0221 µg/mL
- Maximum inhibition rate, KU812-IL5 production by oxidized IL33 [5]: 98.9%
- Relative activity, KU812-IL5 production by oxidized IL33 [5]: 100%
- koff (Human ST2-his [7]): 0.000175 s⁻¹
- kon (Human ST2-his [7]): 763000 M⁻¹ s⁻¹
- kd ratio of pH 5.5/pH 7.4 (Human ST2-his [8]): 1.53
- Kd (Human ST2-his [11]): 0.229 nM
- Kd (Human ST2-his [9]): 0.395 nM
- koff (Human ST2-his [9]): 0.000267 s⁻¹
- kon (Human ST2-his [9]): 676000 M⁻¹ s⁻¹
- IC50, inhibition of KU812-IL5 production promoted by reduced IL33 [10]: 1.47 µg/mL
- Maximum inhibition rate, KU812-IL5 production by reduced IL33 [10]: 97.3%
- Relative activity, KU812-IL5 production by reduced IL33 [10]: 100%
B3: Control antibody CNTO7160 (antibody, human IgG4 S228P, kappa, V domains shown)
VH: EVQLLESGGGLVQPGGSLRLSCAASGFTFSIYDMIWVRQAPGKGLEWVSSIRGEGGGTYYADSVKGRFTISRDNSKNTLYLQMNSLRAEDTAVYYCARDPWSTEGSFFVLDYWGQGTLVTVSS
VL: EIVLTQSPATLSLSPGERATLSCRASQSVDDDLAWYQQKPGQAPRLLIYDASNRATGIPARFSGSGSGTDFTLTISSLEPEDFAVYYCQQYITAPLTFGQGTKVEIKR
notes: Known anti-ST2 control antibody

- IC50, inhibition of HMC-1 IL8 production promoted by IL33 [1]: 0.0944 µg/mL
- Maximum inhibition rate, HMC-1 IL8 production by IL33 [1]: 83.3%
- Relative activity, HMC-1 IL8 production by IL33 [1]: 107%
- IC50, inhibition of HUVEC-IL6 production promoted by IL33 [2]: 3.69 µg/mL
- Maximum inhibition rate, HUVEC-IL6 production by IL33 [2]: 91.8%
- Relative activity, HUVEC-IL6 production by IL33 [2]: 73.9%
- IC50, inhibition of KU812-IL5 production promoted by IL-33 (human IL33-his) [3]: 0.0755 µg/mL
- Maximum inhibition rate, KU812-IL5 production by IL-33 [3]: 94.2%
- Relative activity compared with CNTO7160, KU812-IL5 production by IL-33 [3]: 142%
- IC50, inhibition of activation of KU812-NF-κB reporter gene by IL33 [4]: 0.0553 µg/mL
- Maximum inhibition rate, KU812-NF-κB reporter gene [4]: 88.1%
- Relative activity compared with CNTO7160, KU812-NF-κB reporter gene [4]: 362%
- IC50, inhibition of KU812-IL5 production promoted by oxidized IL33 [5]: 0.0173 µg/mL
- Maximum inhibition rate, KU812-IL5 production by oxidized IL33 [5]: 101%
- Relative activity, KU812-IL5 production by oxidized IL33 [5]: 127%
- IC50 (Human ST2-fc (human) [6]): 0.828 µg/mL
- Maximum inhibition rate (Human ST2-fc (human) [6]): 93.7%
- Relative activity compared with CNTO7160 (Human ST2-fc (human) [6]): 152%
- Kd (Human ST2-his [7]): 0.104 nM
- koff (Human ST2-his [7]): 0.000171 s⁻¹
- kon (Human ST2-his [7]): 1.65e+06 M⁻¹ s⁻¹
- kd ratio of pH 5.5/pH 7.4 (Human ST2-his [8]): 1.43
- Kd (Human ST2-his [9]): 0.131 nM
- koff (Human ST2-his [9]): 0.000245 s⁻¹
- kon (Human ST2-his [9]): 1.87e+06 M⁻¹ s⁻¹
- IC50, inhibition of KU812-IL5 production promoted by reduced IL33 [10]: 0.522 µg/mL
- Maximum inhibition rate, KU812-IL5 production by reduced IL33 [10]: 87.2%
- Relative activity, KU812-IL5 production by reduced IL33 [10]: 281%
B1: 5888-153-H3L2 (antibody, human IgG4 S228P, kappa, V domains shown)
VH: B2 VH with R72A, T74K, V79A, A97T, G107A
VL: B2 VL with S92T
notes: Humanized antibody
